Measured values: article PMC4113420 (Molecular cell, 2014)

How the values were obtained:
SEC = biological target: the molecule itself; assay: SEC
Msh2-Msh6 = Msh2-Msh6 (S. cerevisiae, UniProt P25847 1-964; Q03834 1-1242); assay: SPR
Msh2-Msh6, sequence (P25847 whole entry, chain 1 of 2): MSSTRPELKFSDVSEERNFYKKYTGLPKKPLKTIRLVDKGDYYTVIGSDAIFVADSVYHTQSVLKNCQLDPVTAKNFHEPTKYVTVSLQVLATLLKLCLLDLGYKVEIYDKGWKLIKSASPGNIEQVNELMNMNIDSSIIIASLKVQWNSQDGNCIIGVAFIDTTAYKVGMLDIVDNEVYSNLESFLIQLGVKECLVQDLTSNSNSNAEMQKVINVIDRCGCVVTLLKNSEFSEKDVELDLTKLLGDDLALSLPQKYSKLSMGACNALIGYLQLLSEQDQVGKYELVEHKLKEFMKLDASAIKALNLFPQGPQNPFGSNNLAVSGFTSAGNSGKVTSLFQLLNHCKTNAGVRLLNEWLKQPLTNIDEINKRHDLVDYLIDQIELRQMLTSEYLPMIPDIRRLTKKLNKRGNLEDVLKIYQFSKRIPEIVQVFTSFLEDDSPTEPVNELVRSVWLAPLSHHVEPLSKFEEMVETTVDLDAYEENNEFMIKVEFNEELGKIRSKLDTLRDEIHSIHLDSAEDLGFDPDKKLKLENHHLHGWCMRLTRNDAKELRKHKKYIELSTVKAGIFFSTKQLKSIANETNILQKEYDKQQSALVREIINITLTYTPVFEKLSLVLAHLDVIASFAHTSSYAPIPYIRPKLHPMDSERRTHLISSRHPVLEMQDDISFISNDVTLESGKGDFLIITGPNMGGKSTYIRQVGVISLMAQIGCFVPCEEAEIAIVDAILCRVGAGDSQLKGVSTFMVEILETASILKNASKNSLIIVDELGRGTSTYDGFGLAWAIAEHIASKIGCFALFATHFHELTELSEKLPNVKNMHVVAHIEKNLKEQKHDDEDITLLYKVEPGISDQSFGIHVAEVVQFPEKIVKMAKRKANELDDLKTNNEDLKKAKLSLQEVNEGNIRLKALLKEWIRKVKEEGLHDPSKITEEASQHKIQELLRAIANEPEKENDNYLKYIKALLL
Msh2-Msh6, sequence (Q03834 whole entry, chain 2 of 2): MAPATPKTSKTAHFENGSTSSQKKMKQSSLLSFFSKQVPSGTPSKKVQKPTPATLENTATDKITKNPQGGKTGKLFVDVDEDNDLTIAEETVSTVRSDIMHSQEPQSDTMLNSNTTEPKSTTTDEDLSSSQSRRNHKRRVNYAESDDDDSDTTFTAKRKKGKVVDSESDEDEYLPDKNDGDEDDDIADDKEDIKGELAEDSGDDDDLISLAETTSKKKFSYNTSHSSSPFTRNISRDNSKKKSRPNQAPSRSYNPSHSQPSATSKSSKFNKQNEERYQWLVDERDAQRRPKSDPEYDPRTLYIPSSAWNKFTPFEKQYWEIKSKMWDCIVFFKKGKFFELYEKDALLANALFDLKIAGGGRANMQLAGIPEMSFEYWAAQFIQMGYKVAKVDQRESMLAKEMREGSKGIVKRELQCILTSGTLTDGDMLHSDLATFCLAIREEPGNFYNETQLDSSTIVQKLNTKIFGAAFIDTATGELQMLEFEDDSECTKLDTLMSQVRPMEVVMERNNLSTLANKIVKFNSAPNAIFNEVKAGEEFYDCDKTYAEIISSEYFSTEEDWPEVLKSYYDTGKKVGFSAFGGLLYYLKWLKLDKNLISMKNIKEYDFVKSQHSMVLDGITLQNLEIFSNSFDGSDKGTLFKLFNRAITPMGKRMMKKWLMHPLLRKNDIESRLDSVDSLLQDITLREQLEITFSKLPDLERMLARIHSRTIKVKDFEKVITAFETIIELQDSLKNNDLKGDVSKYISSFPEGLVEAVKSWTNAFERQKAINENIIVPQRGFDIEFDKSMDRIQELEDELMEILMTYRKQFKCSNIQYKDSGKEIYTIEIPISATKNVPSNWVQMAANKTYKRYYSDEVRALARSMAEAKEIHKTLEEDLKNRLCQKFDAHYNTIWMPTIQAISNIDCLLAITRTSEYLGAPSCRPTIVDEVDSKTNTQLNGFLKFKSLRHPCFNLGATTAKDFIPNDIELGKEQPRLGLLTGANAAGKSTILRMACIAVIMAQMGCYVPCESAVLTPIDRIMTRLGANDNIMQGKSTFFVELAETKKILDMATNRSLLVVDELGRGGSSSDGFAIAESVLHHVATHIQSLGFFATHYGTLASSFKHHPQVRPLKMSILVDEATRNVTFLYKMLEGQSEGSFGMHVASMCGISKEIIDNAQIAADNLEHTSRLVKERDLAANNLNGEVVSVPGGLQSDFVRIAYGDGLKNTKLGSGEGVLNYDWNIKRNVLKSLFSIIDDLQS

Row | Binder | binding result (SEC) | binding result (Msh2-Msh6)
1 | Wild-type PCNA (S. cerevisiae, encoded by POL30) (natural protein, biotinylated when bound to the SPR chip (site not stated)) MLEAKFEEASLFKRIIDGFKDCVQLVNFQCKEDGIIAQAVDDSRVLLVSLEIGVEAFQEYRCDHPVTLGMDLTSLSKILRCGNNTDTLTLIADNTPDSIILLFEDTKKDRIAEYSLKLMDIDADFLKIEELQYDSTLSLPSSEFSKIVRDLSQLSDSINIMITKETIKFVADGDIGSGSVIIKPFVDMEHPETSIKLEMDQPVDLTFGAKYLLDIIKGSSLSDRVGIRLSSEAPALFQFDLKSGFLQFFLAPKFNDEE | binds | binds
2 | PCNA-K217E (natural protein, S. cerevisiae, biotinylated when bound to the SPR chip (site not stated)) MLEAKFEEASLFKRIIDGFKDCVQLVNFQCKEDGIIAQAVDDSRVLLVSLEIGVEAFQEYRCDHPVTLGMDLTSLSKILRCGNNTDTLTLIADNTPDSIILLFEDTKKDRIAEYSLKLMDIDADFLKIEELQYDSTLSLPSSEFSKIVRDLSQLSDSINIMITKETIKFVADGDIGSGSVIIKPFVDMEHPETSIKLEMDQPVDLTFGAKYLLDIIEGSSLSDRVGIRLSSEAPALFQFDLKSGFLQFFLAPKFNDEE | binds | binds
3 | PCNA-C81R (natural protein, S. cerevisiae, biotinylated when bound to the SPR chip (site not stated)) MLEAKFEEASLFKRIIDGFKDCVQLVNFQCKEDGIIAQAVDDSRVLLVSLEIGVEAFQEYRCDHPVTLGMDLTSLSKILRRGNNTDTLTLIADNTPDSIILLFEDTKKDRIAEYSLKLMDIDADFLKIEELQYDSTLSLPSSEFSKIVRDLSQLSDSINIMITKETIKFVADGDIGSGSVIIKPFVDMEHPETSIKLEMDQPVDLTFGAKYLLDIIKGSSLSDRVGIRLSSEAPALFQFDLKSGFLQFFLAPKFNDEE | – | binds
4 | PCNA-E143K (natural protein, S. cerevisiae, biotinylated when bound to the SPR chip (site not stated)) MLEAKFEEASLFKRIIDGFKDCVQLVNFQCKEDGIIAQAVDDSRVLLVSLEIGVEAFQEYRCDHPVTLGMDLTSLSKILRCGNNTDTLTLIADNTPDSIILLFEDTKKDRIAEYSLKLMDIDADFLKIEELQYDSTLSLPSSKFSKIVRDLSQLSDSINIMITKETIKFVADGDIGSGSVIIKPFVDMEHPETSIKLEMDQPVDLTFGAKYLLDIIKGSSLSDRVGIRLSSEAPALFQFDLKSGFLQFFLAPKFNDEE | binds | binds
5 | PCNA-C22Y (natural protein, S. cerevisiae, biotinylated when bound to the SPR chip (site not stated)) MLEAKFEEASLFKRIIDGFKDYVQLVNFQCKEDGIIAQAVDDSRVLLVSLEIGVEAFQEYRCDHPVTLGMDLTSLSKILRCGNNTDTLTLIADNTPDSIILLFEDTKKDRIAEYSLKLMDIDADFLKIEELQYDSTLSLPSSEFSKIVRDLSQLSDSINIMITKETIKFVADGDIGSGSVIIKPFVDMEHPETSIKLEMDQPVDLTFGAKYLLDIIKGSSLSDRVGIRLSSEAPALFQFDLKSGFLQFFLAPKFNDEE | binds | binds
6 | PCNA-K13E (natural protein, S. cerevisiae, biotinylated when bound to the SPR chip (site not stated)) MLEAKFEEASLFERIIDGFKDCVQLVNFQCKEDGIIAQAVDDSRVLLVSLEIGVEAFQEYRCDHPVTLGMDLTSLSKILRCGNNTDTLTLIADNTPDSIILLFEDTKKDRIAEYSLKLMDIDADFLKIEELQYDSTLSLPSSEFSKIVRDLSQLSDSINIMITKETIKFVADGDIGSGSVIIKPFVDMEHPETSIKLEMDQPVDLTFGAKYLLDIIKGSSLSDRVGIRLSSEAPALFQFDLKSGFLQFFLAPKFNDEE | binds | binds
7 | PCNA-F254L (natural protein, S. cerevisiae, biotinylated when bound to the SPR chip (site not stated)) MLEAKFEEASLFKRIIDGFKDCVQLVNFQCKEDGIIAQAVDDSRVLLVSLEIGVEAFQEYRCDHPVTLGMDLTSLSKILRCGNNTDTLTLIADNTPDSIILLFEDTKKDRIAEYSLKLMDIDADFLKIEELQYDSTLSLPSSEFSKIVRDLSQLSDSINIMITKETIKFVADGDIGSGSVIIKPFVDMEHPETSIKLEMDQPVDLTFGAKYLLDIIKGSSLSDRVGIRLSSEAPALFQFDLKSGFLQFFLAPKLNDEE | binds | binds
8 | PCNA-L68S (natural protein, S. cerevisiae, biotinylated when bound to the SPR chip (site not stated)) MLEAKFEEASLFKRIIDGFKDCVQLVNFQCKEDGIIAQAVDDSRVLLVSLEIGVEAFQEYRCDHPVTSGMDLTSLSKILRCGNNTDTLTLIADNTPDSIILLFEDTKKDRIAEYSLKLMDIDADFLKIEELQYDSTLSLPSSEFSKIVRDLSQLSDSINIMITKETIKFVADGDIGSGSVIIKPFVDMEHPETSIKLEMDQPVDLTFGAKYLLDIIKGSSLSDRVGIRLSSEAPALFQFDLKSGFLQFFLAPKFNDEE | – | binds
